Here are results for one substance from patent US12559525B2, “Conjugated fibronectin-binding peptides for use in tumor or fibrosis diagnosis and therapy” (priority 2021, dated 2026).

Data set [1] concerns the target T1, Fib1 (N-terminal 30 kDa fragment of fibronectin, SEQ ID NO: 14) (Homo sapiens, UniProt P02751).
T1 construct: 6-His (C); made in house
Nature of the data set: Affinity towards Fib1 by fluorescence polarization. It is filed as binding. The conditions noted are these: fluorescence polarization assay (Example 1, FIG. 1). How it is done:
FIG. 1: Affinity measurements of Cy5-labelled FnBPA5.1 and FnBPA5 towards the N-terminal 30 kDa fragment of Fibronectin (Fib1) according to SEQ ID NO: 14. Curves display triplicates measurements of fluorescence polarization. Error bars display standard deviations. Analysis was conducted using GraphPad Prism. KD is shown in nM.
Preferably, said affinity is measurable by using a fluorescence anisotropy assay, using a peptide with N-terminally appended Cy5 label (as described in Preparative Example 1). Detailed protocol for the measurement is included in Example 1.
For the affinity measurement experiment, Cy5-FnBPA5.1 (according to SEQ DI NO: 12) and Cy5-FnBPA5 (according to SEQ DI NO: 13) (48 nM) were mixed with different concentrations of Fib 1—N-terminal 30 kDa fragment of fibronectin according to SEQ ID NO: 14 (0 nM-4.5 μM) in PBS pH 7.4. Samples were incubated for 1 h (37° C., 70 rpm) and fluorescence polarization was measured in triplicates using the Pherastar FSX plate reader (BMG Labtech; Optic module: FP 590-50 675-50 675-50). […]

For data set [2], the system named is 67NR breast tumor. Nature of the data set: Biodistribution of 111In-labelled peptides in 67NR orthotopic and syngeneic breast tumor model. Conditions: radioisotope-labelled peptide, 67NR orthotopic and syngeneic breast tumor mice. The format is in vivo, Balb/c mice. The method, then: FIG. 5: Biodistribution of ^111In-labeled NODAGA-FnBPA5 and its engineered version NODAGA-FnBPA5.1 in 67NR tumor-bearing mice 24 hours after injection. Results are shown as averages of % injected activity per gram±SD (n=4).
(§1) Animal studies were carried out according to the Swiss Animal Protection Law under the license AG75700. For tumor implantation, 40′000 67NR cells in 50 μL PBS were injected subcutaneously into the mammary fat pad at the 4th nipple of female Balb/c mice (Charles River, Germany) under isoflurane/oxygen anesthesia. Tumor growth was inspected regularly and tumors were measured using a caliper. Two weeks after tumor implantation, mice were injected via the tail vein with approximately 100-150 kBq of the corresponding ^111In-labelled radiotracers, previously diluted with PBS to a concentration of 1-1.5 MBq/mL. At 24 h p.i., mice were euthanized using CO2. The organs of interest were harvested, weighed and counted by means of gamma counter together with three standards containing 100 μL of the injection solution. The percentage of injected activity per gram (% IA/g) was calculated based on the average of the standards set at 100%.

Data set [3] relates to PC-3 tumor. Nature of the data set: Biodistribution of 111In-labelled peptides in PC-3 xenografts. The conditions noted are these: radioisotope-labelled peptide. It is filed as in vivo, CD1 nu/nu mice. How it is done:
FIG. 4: Biodistribution of ^111In-labeled NODAGA-FnBPA5 and its engineered version NODAGA-FnBPA5.1 in PC-3 tumor-bearing CD1 nu/nu mice 24 hours after injection. Results are shown as averages of % injected activity per gram±SD (n=4).
as §1, with “implantation, 5×10^6 PC-3” for “implantation, 40′000 67NR”, “in 100” for “in 50”, “into both shoulders” for “into the mammary fat pad at the 4th nipple”, “female CD1 nu/nu” for “female Balb/c”, “caliper. Five” for “caliper. Two”

No end group written: not given here.

T1 sequence (P02751 32-290): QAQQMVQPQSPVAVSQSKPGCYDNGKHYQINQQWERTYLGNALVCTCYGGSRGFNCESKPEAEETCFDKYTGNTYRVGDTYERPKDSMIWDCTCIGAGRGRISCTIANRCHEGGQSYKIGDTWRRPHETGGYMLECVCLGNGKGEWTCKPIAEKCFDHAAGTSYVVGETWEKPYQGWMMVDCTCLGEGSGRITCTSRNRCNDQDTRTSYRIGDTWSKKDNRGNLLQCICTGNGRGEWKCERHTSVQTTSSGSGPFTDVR

“Gln-Val-Thr-Thr-Gly-Ser-Asn-Leu-Val-Glu-Phe-Thr-Glu-Glu-Ser-Leu-Gly-Ie-Val-Thr-Gly-Ala-Val-Ser-Asp-His-Thr-Thr-Val-Glu-Asp-Thr (QVTTGSNLVEFTEESLGIVTGAVSDHTTVEDT; not fully specified) [FnBPA5.1]”: in data set [1], the “Affinity for Fib1 compared with FnBPA5” value is “improved affinity”. In addition, the “Uptake in tumors compared with FnBPA5” value in data set [2] and in data set [3] (PC3 xenograft mice) was “improved uptake in tumors” each time. For the same substance, the “Uptake in spleen and liver compared with FnBPA5” value in data set [3] (tumor model not given) was “lower uptake in spleen and liver”.
